30 molecules from patent US20170342144A1 (Sanofi, published 2017) can be followed below.

Numbering of substitutions follows the chain as printed.

First the molecules themselves.
T1: human TGFβ2 (human, UniProt P61812 303-414)
T1 construct: also called TGFβ2 homodimer
T1 sequence: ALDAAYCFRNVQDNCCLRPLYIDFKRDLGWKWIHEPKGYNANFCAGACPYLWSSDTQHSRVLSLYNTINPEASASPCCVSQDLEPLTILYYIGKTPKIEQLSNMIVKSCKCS

T2: human TGFβ3 (human, UniProt P10600 301-412)
T2 sequence: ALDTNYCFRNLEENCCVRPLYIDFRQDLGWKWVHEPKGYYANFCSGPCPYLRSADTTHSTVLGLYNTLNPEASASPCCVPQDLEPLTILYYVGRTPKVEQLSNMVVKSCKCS

B1: N32Y (antibody, V domains shown)
VH: QVQLVQSGAEVKKPGSSVKVSCKASGYTFSSYVISWVRQAPGQGLEWMGGVIPIVDIANYAQRFKGRVTITADESTSTTYMELSSLRSEDTAVYYCASTLGLVLDAMDYWGQGTLVTVSS
VL: ETVLTQSPGTLSLSPGERATLSCRASQSLGSSYLAWYQQKPGQAPRLLIYGASSRAPGIPDRFSGSGSGTDFTLTISRLEPEDFAVYYCQQYADSPITFGQGTRLEIK
notes: GC1008 IgG4 variant
B2: S31G (antibody, V domains shown)
VH: B1 VH with S31G, Y32N
VL: B1 VL
notes: GC1008 IgG4 variant
B3: S30C (antibody, V domains shown)
VH: B1 VH with S30C, Y32N
VL: B1 VL
notes: GC1008 IgG4 variant
B4: S31H (antibody, V domains shown)
VH: B1 VH with S31H, Y32N
VL: B1 VL
notes: GC1008 IgG4 variant
B5: S30I (antibody, V domains shown)
VH: B1 VH with S30I, Y32N
VL: B1 VL
notes: GC1008 IgG4 variant
B6: S30F (antibody, V domains shown)
VH: B1 VH with S30F, Y32N
VL: B1 VL
notes: GC1008 IgG4 variant
B7: P53I (antibody, V domains shown)
VH: B1 VH with Y32N, P53I
VL: B1 VL
notes: GC1008 IgG4 variant
B8: S30T (antibody, V domains shown)
VH: B1 VH with S30T, Y32N
VL: B1 VL
notes: GC1008 IgG4 variant
B9: S30R (antibody, V domains shown)
VH: B1 VH with S30R, Y32N
VL: B1 VL
notes: GC1008 IgG4 variant
B10: S31K (antibody, V domains shown)
VH: B1 VH with S31K, Y32N
VL: B1 VL
notes: GC1008 IgG4 variant
B11: S30Q (antibody, V domains shown)
VH: B1 VH with S30Q, Y32N
VL: B1 VL
notes: GC1008 IgG4 variant
B12: S30L (antibody, V domains shown)
VH: B1 VH with S30L, Y32N
VL: B1 VL
notes: GC1008 IgG4 variant
B13: S31L (antibody, V domains shown)
VH: B1 VH with S31L, Y32N
VL: B1 VL
notes: GC1008 IgG4 variant
B14: S31E (antibody, V domains shown)
VH: B1 VH with S31E, Y32N
VL: B1 VL
notes: GC1008 IgG4 variant
B15: S31A (antibody, V domains shown)
VH: B1 VH with S31A, Y32N
VL: B1 VL
notes: GC1008 IgG4 variant
B16: S31P (antibody, V domains shown)
VH: B1 VH with S31P, Y32N
VL: B1 VL
notes: GC1008 IgG4 variant
B17: S30Y (antibody, V domains shown)
VH: B1 VH with S30Y, Y32N
VL: B1 VL
notes: GC1008 IgG4 variant
B18: S30D (antibody, V domains shown)
VH: B1 VH with S30D, Y32N
VL: B1 VL
notes: GC1008 IgG4 variant
B19: S31Q (antibody, V domains shown)
VH: B1 VH with S31Q, Y32N
VL: B1 VL
notes: GC1008 IgG4 variant
B20: N59R (antibody, V domains shown)
VH: B1 VH with Y32N, N59R
VL: B1 VL
notes: GC1008 IgG4 variant
B21: S30N (antibody, V domains shown)
VH: B1 VH with S30N, Y32N
VL: B1 VL
notes: GC1008 IgG4 variant
B22: S31V (antibody, V domains shown)
VH: B1 VH with S31V, Y32N
VL: B1 VL
notes: GC1008 IgG4 variant
B23: S31R (antibody, V domains shown)
VH: B1 VH with S31R, Y32N
VL: B1 VL
notes: GC1008 IgG4 variant
B24: S31T (antibody, V domains shown)
VH: B1 VH with S31T, Y32N
VL: B1 VL
notes: GC1008 IgG4 variant
B25: V55G (antibody, V domains shown)
VH: B1 VH with Y32N, V55G
VL: B1 VL
notes: GC1008 IgG4 variant
B26: S30M (antibody, V domains shown)
VH: B1 VH with S30M, Y32N
VL: B1 VL
notes: GC1008 IgG4 variant
B27: S30G (antibody, V domains shown)
VH: B1 VH with S30G, Y32N
VL: B1 VL
notes: GC1008 IgG4 variant
B28: N59Y (antibody, V domains shown)
VH: B1 VH with Y32N, N59Y
VL: B1 VL
notes: GC1008 IgG4 variant
B29: S30V (antibody, V domains shown)
VH: B1 VH with S30V, Y32N
VL: B1 VL
notes: GC1008 IgG4 variant
B30: S30P (antibody, V domains shown)
VH: B1 VH with S30P, Y32N
VL: B1 VL
notes: GC1008 IgG4 variant

T3 sequence (P01137 279-390 limits assumed): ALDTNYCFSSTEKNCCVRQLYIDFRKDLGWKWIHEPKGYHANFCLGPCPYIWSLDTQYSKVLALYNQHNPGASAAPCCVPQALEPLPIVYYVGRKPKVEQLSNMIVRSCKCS

The first experiment has as its target T3, human TGFβ1 (human, UniProt P01137 279-390).
T3 construct: also called TGFβ1 homodimer
Put plainly: Biacore off-rate vs wt GC1008, 50 nM. The method, boiled down: (§1)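 Surface plasmon resonance on a Biacore 3000 measured how fast purified antibody variants dissociated from TGFβ isoforms immobilized at about 100 RU. Variants carried single heavy- or light-chain substitutions and were produced by transient Expi293F transfection with Protein A cleanup. Samples at 50 nM were tested in duplicate, and each variant kd was divided by the wild-type control kd to give fold change.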
In general terms: Surface plasmon resonance follows binding to a sensor surface in real time, without labels.
As to B1, the kd var/kd wt turned out to be 2.1.
B2 yielded a kd var/kd wt of 1.1.
With B3, the kd var/kd wt came out at 1.2.
On the same count and under the same terms, with B4 the figure was 1.5; with B5, 1.4; with B6, 1.
On the same count and under the same terms, as for B7, the figure is 4.3.
In turn, B8 had a kd var/kd wt of 1.2.
The same measure, in the same setting: as for B9, the figure is 1.9.
Molecule B10 registered a kd var/kd wt of 1.8.
The same measure, in the same setting: with B11 the figure was 1.2.
On the same count and under the same terms, with B12 the figure was 1; with B13, 2.
On the same count and under the same terms, with B14 the figure was 1.7; with B15, 1.2.
Take B16: the kd var/kd wt was 1.5.
The same measure, in the same setting: with B17 the figure was 1; with B18, 1.4.
On the same count and under the same terms, as for B19, the figure is 1.5; as for B20, 2.4; as for B21, 1.3.
The molecule B22 returned a kd var/kd wt of 1.4.
Regarding B23, the kd var/kd wt was found to be 1.4.
The same measure, in the same setting: with B24 the figure was 1.6; with B25, 1.8.
Regarding B26, the kd var/kd wt was found to be 0.7.
The molecule B27 gave a kd var/kd wt of 0.9.
On the same count and under the same terms, as for B28, the figure is 1.3; as for B29, 1.1.
Consider B30, for which the kd var/kd wt is 1.2.

A further experiment deals with T1, human TGFβ2. Put plainly: Biacore off-rate vs wt GC1008, 50 nM. The method, boiled down:
as §1
In turn, B1 returned a kd var/kd wt of 1.2.
As for B2, the kd var/kd wt was found to be 1.2.
Same read-out and setting: with B3 the figure was 1.1; with B4, 1.3; with B5, 1.1.
As for B6, the kd var/kd wt was determined as 0.9.
Same read-out and setting: as for B7, the figure is 1.6; as for B8, 1.2; as for B9, 1.2.
The same measure, in the same setting: with B10 the figure was 1.2.
Same read-out and setting: as for B11, the figure is 1.2; as for B12, 1; as for B13, 1.2.
For B14, the kd var/kd wt is 1.4.
Same read-out and setting: as for B15, the figure is 1.2.
For B16, the kd var/kd wt was found to be 1.2.
Still for that read-out and setting: with B17 the figure was 0.9; with B18, 1.2.
In the case of B19, the kd var/kd wt is 1.
On the same count and under the same terms, with B20 the figure was 1.1; with B21, 1.3.
Consider B22, for which the kd var/kd wt worked out at 1.
B23 gave a kd var/kd wt of 1.2.
Same read-out and setting: with B24 the figure was 1.2; with B25, 1.9; with B26, 0.9.
On the same count and under the same terms, as for B27, the figure is 0.7.
On the same count and under the same terms, with B28 the figure was 1.1.
For the molecule B29, the kd var/kd wt is 1.2.
On the same count and under the same terms, with B30 the figure was 1.

Another experiment deals with T2, human TGFβ3. Put plainly: Biacore off-rate vs wt GC1008, 50 nM. The method, boiled down: as §1
B1 yielded a kd var/kd wt of 1.7.
The same measure, in the same setting: with B2 the figure was 1.1.
Same read-out and setting: as for B3, the figure is 1; as for B4, 1.4.
The same measure, in the same setting: as for B5, the figure is 1.1; as for B6, 0.7.
Turning to B7, the kd var/kd wt was determined as 1.3.
In turn, B8 displayed a kd var/kd wt of 1.1.
Turning to B9, the kd var/kd wt was 1.3.
Still for that read-out and setting: with B10 the figure was 1.4.
Molecule B11 gave a kd var/kd wt of 1.1.
In turn, B12 displayed a kd var/kd wt of 1.
Same read-out and setting: with B13 the figure was 1.5; with B14, 1.4.
In the case of B15, the kd var/kd wt was 1.1.
In turn, B16 had a kd var/kd wt of 1.2.
In turn, B17 had a kd var/kd wt of 0.8.
B18 registered a kd var/kd wt of 1.1.
On the same count and under the same terms, with B19 the figure was 1; with B20, 1.5.
In turn, B21 returned a kd var/kd wt of 1.2.
Same read-out and setting: with B22 the figure was 1.4.
The same measure, in the same setting: as for B23, the figure is 1.5.
On the same count and under the same terms, as for B24, the figure is 1.5; as for B25, 1.9; as for B26, 1.
Take B27: the kd var/kd wt amounted to 0.9.
Still for that read-out and setting: with B28 the figure was 1.5; with B29, 1.1; with B30, 0.9.
